From patent US20250332277A1, “PROTEIN TYROSINE KINASE 7 ANTIBODIES AND ANTIBODY-DRUG CONJUGATES” (Eli Lilly and Company, priority 2024, published 2025) come the findings set out here.

In this experiment the target is human PTK-7 on cells (OV90-PTK-7, NCI-H446, OVCAR-3) (human) (UniProt Q13308). In words: cell-based or functional assay.
Chain of human PTK-7 on cells (OV90-PTK-7, NCI-H446, OVCAR-3) (human) (Q13308 31-1070 limits assumed): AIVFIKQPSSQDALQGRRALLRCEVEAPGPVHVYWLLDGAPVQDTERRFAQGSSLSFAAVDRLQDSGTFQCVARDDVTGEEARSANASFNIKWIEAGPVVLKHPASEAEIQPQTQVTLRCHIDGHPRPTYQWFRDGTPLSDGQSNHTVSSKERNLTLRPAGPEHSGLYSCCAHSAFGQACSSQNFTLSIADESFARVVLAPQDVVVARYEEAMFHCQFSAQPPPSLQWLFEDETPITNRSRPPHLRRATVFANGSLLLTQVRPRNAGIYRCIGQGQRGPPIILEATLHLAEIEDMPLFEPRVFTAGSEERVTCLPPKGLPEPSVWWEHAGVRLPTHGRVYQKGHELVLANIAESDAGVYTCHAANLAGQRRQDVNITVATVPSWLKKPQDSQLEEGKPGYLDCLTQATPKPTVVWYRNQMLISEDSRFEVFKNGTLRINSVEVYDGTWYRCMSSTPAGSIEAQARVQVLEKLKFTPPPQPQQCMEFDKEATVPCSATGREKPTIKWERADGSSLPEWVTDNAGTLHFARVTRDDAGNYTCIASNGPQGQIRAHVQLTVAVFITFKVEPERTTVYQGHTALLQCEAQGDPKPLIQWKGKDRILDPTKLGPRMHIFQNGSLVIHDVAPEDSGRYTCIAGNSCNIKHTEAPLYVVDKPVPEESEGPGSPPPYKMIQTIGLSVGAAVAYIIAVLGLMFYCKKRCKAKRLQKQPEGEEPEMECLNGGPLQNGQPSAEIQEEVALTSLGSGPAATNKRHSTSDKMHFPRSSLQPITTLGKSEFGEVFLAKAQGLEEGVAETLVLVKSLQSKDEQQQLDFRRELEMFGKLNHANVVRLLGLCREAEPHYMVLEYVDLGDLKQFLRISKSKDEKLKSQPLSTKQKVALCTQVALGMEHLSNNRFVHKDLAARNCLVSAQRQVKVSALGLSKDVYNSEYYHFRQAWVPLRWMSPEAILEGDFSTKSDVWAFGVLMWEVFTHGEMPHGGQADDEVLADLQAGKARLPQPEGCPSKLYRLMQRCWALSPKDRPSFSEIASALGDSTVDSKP

B1: Cofetuzumab-Pelidotin (protein, INN chains, looked up)
VH: QVQLVQSGPEVKKPGASVKVSCKASGYTFTDYAVHWVRQAPGKRLEWIGVISTYNDYTYNNQDFKGRVTMTRDTSASTAYMELSRLRSEDTAVYYCARGNSYFYALDYWGQGTSVTVSS
VL: EIVLTQSPATLSLSPGERATLSCRASESVDSYGKSFMHWYQQKPGQAPRLLIYRASNLESGIPARFSGSGSGTDFTLTISSLEPEDFAVYYCQQSNEDPWTFGGGTKLEIK
modifications: pelidotin auristatin payload
As to B1, the Cytotoxicity IC50, OV90-PTK-7 cells (CellTiter-Glo, 5 days) was found to be 0.0331 pM and the Cytotoxicity IC50, OVCAR-3 cells (CellTiter-Glo, 7 days) was found to be 2.53 nM.
